Test results as given in article PMC7606508, “Synthesis of two new lipid mediators from docosahexaenoic acid by combinatorial catalysis involving enzymatic and chemical reaction” (Scientific Reports, 2020).

Columns and labels:
Assay in all cases: purified protein
Type in all cases: biochemical, Phormidium nigroviride
Settings in all cases: 50 mM Tris-HCl pH 8.0, 30 °C, 3 μg/mL enzyme, 25-175 μM substrate
purified protein [1] = substrate: CC/C=C\C/C=C\C/C=C\C/C=C\C/C=C\C/C=C\CCC(=O)O
purified protein [2] = substrate: CC/C=C\C/C=C\C/C=C\C/C=C\C/C=C\CCCC(=O)O
purified protein [3] = substrate: CCCCC/C=C\C/C=C\C/C=C\C/C=C\CCCC(=O)O

B1: Osc-LOX (Phormidium nigroviride PCC 7112) (protein)
chain: MVDNMKPSLPQDDPNQEQRKDSLNRQQQAYQFDYESLSPLALLKNVPAVENFSSKYIGERILATSELPANMLAADSRTFLDPLDELQDYEDFFTLLPLPAVAKIYQTDRSFAEQRLSGANPMVLRLLDAGDPRAQTLAQISSFHPLFDLGQELQQKNIYVADYTGTDEHYRAPSKIGGGSYEKGRKFLPKPRAFFAWRWTGIRDRGEMTPIAIQLDPTPDSHVYTPFDPPVDWLFAKLCVQVADANHHEMSSHLGRTHLVMEPIAIVTARQLAQNHPLSLLLKPHFRFMLTNNELARSYLIAPGGPVDELLGGTLPETMEIAREACSTWSLDEFALPAELKNRGMDDTNQLPHYPYRDDGLLLWDAIETFVSGYLKFFYPTEIAIVQDVELQTWAQELASDRGGKVKGMPPRINTVEQLIKIVTTIIFTCGPQHSAVNFPQYEYMSFAANMPLAAYRDIPKITASGNLEVITEKDILRLLPPYKRAADQLKILFTLSAYRYDRLGYYDKSFRELYRMSFDEVFAGTPIQLLARQFQQNLNMAEQKIDANNQKRVIPYIALKPSLVINSISM
notes: N-terminal His6 tag (pET-28a, NdeI/XhoI) kept; codon-optimized synthetic gene; E. coli BL21(DE3)
- Km (purified protein [1]): 63.9 ± 4.8 µM
- kcat (purified protein [1]): 13.9 ± 0.348 s⁻¹
- kcat/Km (purified protein [1]): 218000 ± 11700 M⁻¹ s⁻¹
- Km (purified protein [2]): 67.0 ± 3.6 µM
- kcat (purified protein [2]): 15.6 ± 0.452 s⁻¹
- kcat/Km (purified protein [2]): 233000 ± 6670 M⁻¹ s⁻¹
- Km (purified protein [3]): 68.9 ± 3.5 µM
- kcat (purified protein [3]): 19.6 ± 0.277 s⁻¹
- kcat/Km (purified protein [3]): 285000 ± 10000 M⁻¹ s⁻¹
